Some results are limits rather than exact numbers.

These results are taken from patent publication US20220411514A1 (published 2022).

The chains are these.
B1: IMT-001 (antibody, V domains shown)
VH: QVQLVQSGSELKKPGASVKVSCKASGYTFTNYGMNWVRQAPGQGLKWMGWINTNTGEPTYVEEFTGRFVFSLETSVSTAYLQISSLKAEDTAVYFCAPYDNFFAYWGQGTTVTVSS
VL: DIVLTQSPLSLPVTPGEPASISCRSSKSLLYKDGKTYLNWFLQKPGQSPQLLIYLMSTHASGVPDRFSGSGSGTDFTLKISRVEAEDVGVYYCQQLVDYPLTFGGGTKLEIKR
B2: 4A11.2B5 (antibody, V domains shown)
VH: QVQLQQSGPELVKPGASVKISCKASGYSFTNYYIHWVKQRPGQGLEWIGWIYPGSGNTNYNEKFKGKATLTADTSSSTTNMQLSSLTSEDSAVYYCSTAPGGFDVWGSGTTVTVSS
VL: DIVMTQAAFSNPVTLGTSASISCRSSKSLLHSDGITYLYWYLQRPGQSPQLLIYRMSNLASGVPDRFSGSGSGTDFTLRISRVEAEDVGVYYCAQMLEFPLTFGAGTKLELKR
B3: 15G7.2A7 (antibody, V domains shown)
VH: EVQLQQSGPELVKPGASVKISCKASGYTFTDYYMNWVKQSHGKSLEWIGDINPNNGGTNYNQKFKGKATLTVDKSSSTAYMELRSLTSEDSAVYYCTSGYGFPYWGQGTLVTVSA
VL: DIQMNQSPSSLSASLGDTISITCRASQNINIWLSWYQQKPGNIPQLLIYKASNLHTGVPSRFSGSGSGTDFTLTISSLQPEDIATYYCLQGQSYPLTFGAGTKLVMKR
B4: 6H6.2D6 (antibody, V domains shown)
VH: QIQLVQSGPELKKPGETVKISCKASGYTFTTYGMSWVKQAPGKGLKWMAWINTYSGVPTYADDFKGRFAFSLETSASTAYLQINNLTNEDTATYFCARGPYAMDYWGQGTSVTVSS
VL: DIQMTQTTSSLSASLGDRVTISCSASQGISNYLNWYQQKPDGTVKLLIYYTSSLHSGVPSRFSGSGSGTDYSLTISNLEPEDIATYYCQQYSELPYTFGSGTKLEIKR
B5: 23H9.2E4 (antibody, V domains shown)
VH: QIQLVQSGPELKKPGETVKISCKASGYTFTTYAMSWVKQAPGKGLKWMGWINTYSGVPTYADDLKGRFAFSLETSASTAYLQINNLKNEDTATYFCARGPYAMDYWGQGTSVTVSS
VL: DIQMTQTTSSLSASLGDRVTISCSASQGINNYLNWYQQKPDGTVKLLIYYASSLHSGVPSRFSGSGSGTDYSLTISNLEPEDIATYYCQQYSQVPYTFGSGTKLEIK
B6: 19B5.2E6 (antibody, V domains shown)
VH: QIQLVQSGPELKKPGETVKISCKASGYTFTTYAMSWVKQAPGKGLKWMGWINTYSGVPTYADDLKGRFAFSLETSASTAYLQINNLKNEDTATYFCARGPYAMDYWGQGTSVTVSS
VL: DIQMTQTTSSLSASLGDRVTISCSASQGINNYLNWYQQKPDGTVKLLIYYASSLHSGVPSRFSGSGSGTDYSLTISNLEPEDIATYYCQQYSQVPYTFGSGTKLEIKR
B7: 13G4.2F8 (antibody, V domains shown)
VH: QVQLQQPGAELVKPGASVKLSCKASGYTFTSYWMHWVKQRPGQGLEWIGMIHPNSGSTDYNEKFKNKATLNVDKSSSTAYIQLSSLTSEDSAVYYCTRWGIYYYARDYWGQGTTLTVSS
VL: DIVMTQSQKFMSTSVGERVSITCKASQNVGTNVAWYQQKAGQSLELLIYGASNRHTGVPDRFTGSGSGTDFTLTITNVQSEDMTNYFCEQYSNFPLTFGAGTKLELKR
B8: IMT-006 (antibody, V domains shown)
VH: QVQLVQSGAEVKKPGASVKVSCKASGYSFTNYYMHWVRQAPGQRLEWMGWIYPGSGNTNYNEKFQGRVTITADTSASTAYMELSSLRSEDTAVYYCSTAPGGFDVWGQGTTVTVSS
VL: DIVMTQTPLSLSVTPGQPASISCKSSKSLLHSDGITYLYWYLQKPGQSPQLLIYRMSNLASGVPDRFSGSGSGTDFTLKISRVEAEDVGVYYCAQMLEFPLTFGQGTKLEIKR
B9: 9H2.2H10 (antibody, V domains shown)
VH: QVQLQQPGAELVGPGSSVKLSCKASGYTFTNYWIHWVKQRPLQGLEWIGNIDPSDSETHYNQKFKDKATLTVDKSSSTAYMQLSSLTSEDSAVYYCARHGYYDYWGQGTTLTVSS
VL: DIVMTQSHKFMSTSVGDRVSITCKASQDVSTAVAWYQQKPGQSPKLLIYWASTRHTGVPDRFTGSGSGTDYTLTISSVQAEDLALYYCQQHYTTPLTFGAGTKLELKR
B10: 4G2.2G6 (antibody, V domains shown)
VH: QIQLVQSGPDLKKPGETVKISCKASGYTFTTYVMSWVKQAPGKDLKWMGWINTHSGVPTYADDFKGRFDFSLETSANTAFLQINNLKNEDTATYFCTRDGNDGDAMDNWGQGTSVTVSS
VL: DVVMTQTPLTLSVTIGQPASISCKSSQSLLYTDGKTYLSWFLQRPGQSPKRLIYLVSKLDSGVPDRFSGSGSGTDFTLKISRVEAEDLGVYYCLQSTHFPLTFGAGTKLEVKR
B11: 3B11.2G2 (antibody, V domains shown)
VH: QIQLVQSGPELKKPGETVKISCKTSGYKFKTYVMSWVKQAPGKALKWMGWINTYSGVPTYADDFKGRFAFSLETSASTAYLEIINLKNEDTATYFCARDGNYGDPMDYWGQGTSVTVSS
VL: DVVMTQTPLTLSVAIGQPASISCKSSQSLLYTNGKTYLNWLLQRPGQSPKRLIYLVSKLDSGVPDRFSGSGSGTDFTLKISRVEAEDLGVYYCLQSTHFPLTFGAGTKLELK
B12: 15F10.2D6 (antibody, V domains shown)
VH: EVQLVESGGGLVKPGGSLKLSCAASGFAFSSYAMSWVRQTPEKRLEWVATISDGGVYTYYTDHVKGRFTISRDNAEDNLYLQMSHLKSEDTAMYYCVRDGGYWGQGTTLTVSS
VL: DVLMTQTPLSLPVSLGDQASISCRSSQSIVHNNGNTYLEWYLQKPGQSPKLLIYKVSNRFSGVPDRFSGSGSGTDFTLKISRVEAEDLGVYYCFQGSHVPLTFGGGTKLELKR
B13: 7D8.2D8 (antibody, V domains shown)
VH: EVQLVESGGGLVKPGGSLKLSCAASGFTFSSYAMSWVRQTPEKRLEWVATISDGGIYTYYPDNVKGRFTISRDNAKNNLFLQMSHLKSEDTAMYYCVRDGGYWGQGTTLTVSS
VL: DVLMTQTPLSLPVSLGDQASISCRSSQSIVHSNGNTYLEWYLQKPGQSPKLLIYKVSNRFSGVPDRFSGSGSGTDFTLKISRVEAEDLGVYYCFQGSHVPLTFGAGTKLELKR
B14: 19D9.2E5 (antibody)
chain 1: QIQLVQSGPELKKPGETVKISCKASGYTFTTYGMGWVKQAPGKGLKWMGWINTYSGVPTYADDFKGRFAFSLETSTSTAYLQINNLKNEDMATYFCATPYEYDGAYWGQGTLVTVSA
chain 2: not shown

Sequence of hGal-3 (P17931 2-250): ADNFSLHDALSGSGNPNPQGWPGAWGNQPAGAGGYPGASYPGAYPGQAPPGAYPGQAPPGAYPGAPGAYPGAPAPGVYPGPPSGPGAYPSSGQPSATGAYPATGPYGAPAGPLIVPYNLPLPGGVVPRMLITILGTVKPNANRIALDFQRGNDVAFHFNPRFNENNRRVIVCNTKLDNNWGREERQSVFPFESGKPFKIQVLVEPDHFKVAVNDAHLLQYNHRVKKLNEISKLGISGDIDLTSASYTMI

This experiment concerns the target hGal-3 (UniProt P17931 2-250). Briefly: SPR. For orientation: In SPR one partner is held on a chip, and binding of the other changes the refractive index at the surface.
As to B1, binding was characterised by a dissociation constant (Kd) of 6.09 nM.

Regarding B2, the affinity, expressed as Kd, was 5.22 nM.

With B3, the Kd (in general, the equilibrium constant for the complex coming apart) came out at 11.3 nM.

Regarding B4, the Kd came out at 4.86 nM.

As for B5, the dissociation constant (Kd) was determined as 4.26 nM.

B6 returned a Kd of under 1 nM.

In turn, B7 yielded an equilibrium dissociation constant (Kd) of 2.53 nM.

Regarding B8, the Kd stood at 16.5 nM.

As for B9, the Kd came out at 18.4 nM. This Kd and that of the molecule before are within 1.5-fold of each other.

Consider B10, for which the Kd is under 1 nM.

Regarding B11, the equilibrium dissociation constant (Kd) was under 1 nM.

B12 returned a Kd of 2.06 nM. In other words, the single-digit nanomolar range.

B13 displayed a Kd of 2.49 nM.

On to B14, for which the Kd was under 1 nM.
